Experimental data reported in the DeepSol protein solubility set.

assay: soluble on expression in E. coli; label from the status in PepcDB or PDB records

| Sequence | soluble on expression in E. coli |
| --- | --- |
| MKVIAVNGGPRKQWNTATLLHKALEGAQSAGAETDLFHLYDLNYKGCISCFGCKRKNSSRIGHCVLKDELTPLLEEVLKCDALLLGSPIYFGNVTGAMRSFLERLFFSLLSYNEGQRTVFPRKVASGFIYTMNVPEDFLPQLEHHHHHH | soluble |
| MGSDKIHHHHHHMISATNWVPRGFSSEFPEKYVLDDEEVERINQLAQLNLDDAKATLEEAEGESGVEDDAATGSSNKLKDQLDIDDDLKEYNLEEYDDEEIADNEGGKDVSMFPGLSNDSDVKFHEGEKGEDPYISLPNQEDSQEEKQELQVYPSDNLVLAARTEDDVSYLDIYVYDDGAGFHSSDIPVEEGDEADPDVARGLVRDPALYVHHDLMLPAFPLCVEWLDYKVGSNSEEAANYAAIGTFDPQIEIWNLDCVDKAFPDMILGEPLDNSMVSLKSKKKKKKSKTGHITTHHTDAVLSMAHNKYFRSVLASTSADHTVKLWDLNSGNAARSLASIHSNKNVSSSEWHMLNGSILLTGGYDSRVALTDVRISDESQMSKYWSAMAGEEIETVTFASENIILCGTDSGNVYSFDIRNNENRKPVWTLKAHDAGISTLCSNKFIPGMMSTGAMGEKTVKLWKFPLDDATNTKGPSMVLSRDFDVGNVLTSSFAPDIEVAGTMVIGGVNKVLKLWDVFTNRSVRKSFKSELENVQARAKEEAQKIGKSSRIARKYTSNDNPDTVITIDDQGEDEEEREGGDEHDDMA | not soluble |
| MNMSRHDEFGGSTNKGPVQEHDVIMRGRRLLDITGVKQVESFDNEEFLLETVMGFLAIRGQNLQMKNLDVDKGVVSIKGRIFDLVYLDDHQEKAKGFFSKLFK | not soluble |
| MSHYQCAVCSSIDANPNSLAVNYQCLADSSVVGEFHVLPRHQGYTDLLHGGIASSLLDGAMTHCLLFRDIQALTAQLDVRYHAPIELDEHVTITAHCEGERRGIYQLVAQLLVNNEVRVTAKGKFIRPKLEHHHHHH | soluble |
| EEPSSNEIHIGSLVIFPDAYVVSKRDETIELTHREFELLHYLAKHIGQVMTREHLLQTVWGYDYFGDVRTVDVTVRRLREKIEDNPSHPNWIVTRRGVGYYLRNPEQD | soluble |
| MSLSAPLGENMSNLTSEERHARLRQIYIEKERRQRLGSRMGLSPLEEEANDRLMAIRQVDEEFYNLWRNYHSQPPPFLKHLNIIDTNLYAALKSMPKGGLLHVHDSGMLRMEILIDLIYRDNLWVCVNLEQDFEDFRFSRYFPHIPPAEDYQCNWMLMSNFFQLESRLEFENRLRKILTVRPEGYKSSSELVRHLRRHQRIIHGLITFRPIWSEFIFTMLSDFYADGVHYVELRSSLPNMYDLDGNNFTILETAEALVSVSNIFKNSFKDFIGIKLIYAPSRNLNDSRMDEYLENARLLKLHFPNFFAGFDLNTFGDECNLPLLENVTQLLRIGKNIDFYFHAGESRCPDSSRPDANLLEALLLQSKRIGNAVNLPFHPEIMKVMKRLSIAVEICPLSNHYLQYFNDFRQHPAAYLIAAGFPIVIGSDYPCFWNSAPLTDDFYVAFVGVISGWGDLRLLKQFALNSFLFSSLSETEKNMAVSKWQCSWNRWVRNLVNSSGYEGHHHHHH | not soluble |
| SSQFWYSEETASRLAEELLQQAGEHGRIACLSAPSVYQKLKQLESVRSDGVSAVLLEFDRRFAAYGDEFVFYDYNNPLCLPEDLLPQSFDIVIADPPYLSEECLSKVTLTVKHLTKGKILLCTGAIMEEHAGKLLDLKMCSFLPRHNHNLANEFRCYVNYESRLLS | soluble |
| MGSDKIHHHHHHMPKNLYNYQEFIRLSHEGKIAFEQIDVPKNASLLTEKIDIDNHIYLVVDGYIALILNDGSQNPKIYSIQGKGTFLNYFTLLDRSNNHFNFKTLSGCSLYKYSKADMEYFLSMFPENFGFQFFIMKNQTTHIYFKSLMASSPASEKLKTTFSNMALLHGVLSDDDTVILPQAIKTSHLLSYSNLSKSCFYKDLQHLKTTNQIEKKEKSWIIHDQELYAMIQNGQTSF | not soluble |
| LDARFSDAESNSGLTKATTDTLEAYLDVNEDGTWEVDNFLKKSVDKQHGWMQIIDSEGNTDYSYGVPKDVPGTYTKKELLSIYKTKKLHNYKLNYWAINIEDKSYLLLSGWKSKSEQLLTSVEKREQKIDSLAHYKSSTIDYIKRKKGAIYLLDSNGKILDSINSTKSERKTMNQLELLKYSSKPWNYKREISVKILNKDRWMVATVPNPVYVTDQEFNKSFLK | not soluble |
| SLPVRESLQKQVKILIGLGNLGFGGYRGLYTRFTNPNGFLEPASSDLLLINERRNLSVIGAVSRTFSVPSVSGPAFQVCGYHIDLLLSDPCKSMASLGSKSLFVDRHSASLVSKRFTGGMVSGDGPNRGRISMRLRGKDHNEKSTICAYFAYRGAKRWIYLNQQRRGMGFRGLHSSLSNRLSAGNAPDVSLDNSVTDEQVRDSSDSVAAKLCTKPLKLVSGSCYLPHPDKEATGGEDAHFICAEEQALGVADGVGGWAELGIDAGYYSRELMSNSVNAIQDEPKGSIDPARVLEKAHTCTKSQGSSTACIIALTNQGLHAINLGDSGFMVVREGHTVFRSPVQQHDFNFTYQLESGRNGDLPSSGQVFTVAVAPGDVIIAGTDGLFDNLYNNEITAIVVHAVRTNIDPQVTAQKIAALARQRAQDKNRQTPFSTAAQDAGFRYYGGKLDDITVVVSYVAASKEEGKH | soluble |
| VTDLAGTTRLLRAQGVTAPAGFRAAGVAAGIKASGALDLALVFNEGPDYAAAGVFTRNQVKAAPVLWTQQVLTTGRLRAVILNSGGANACTGPAGFADTHATAEAVAAALSDWGTETGAIEVAVCSTGLIGDRLPMDKLLAGVAHVVHEMHGGLVGGDEAAHAIMTTDNVPKQVALHHHDNWTVGGMAKGAGMLAPSLA | soluble |
| MGSDKIHHHHHHMTAKVISFINMKGGVGKTTLCVGVSEFMAHFKSKKILLIDLDPQFNATQTLMDMYDLTDQYMNDIRFNKTIRLLFEETHSVSERPVLPKPDKVILHLDTSDVIDGELDIICGSIDLIKDDDSRKSKYKRVRKFLREQGLLKHYDYIFIDCPPTISFYTDAALYASDYYIVPTRIDRYSILGINLLKTVIEQAKFDDDLSIEPLGLIYTNYPTNNIPAPKQQEILDVLEENKDVLEIGVFRNKFHYLEHLMTGKSGNIASKYVKSKKDIEKISVEIESKVH | not soluble |
| MRLPDAGFRRYIVVAGRRNVGKSSFMNALVGQNVSIVSEYAGTTTDPVYKSMELYPVGPVTLVDTPGLDDVGELGRLRVEKARRVFYRADCGILVTDSEPTPYEDDVVNLFKEMEIPFVVVVNKIDVLGEKAEELKGLYESRYEAKVLLVSALQKKGFDDIGKTISEILPGDEEIPYLGDLIDGGDLVILVVPIDLGAPKGRLIMPQVHAIREALDREAIALVVKERELRYVMENIGMKPKLVITDSQVVMKVASDVPEDVELTTFSIVESRYRGDLAYFVESVRKIEELEDGDTVVIMEGCTHRPLTEDIGRVKIPRWLVNHTGAQLNFKVIAGKDFPDLEEIEGAKLIIHCGGCVLNRAAMMRRVRMAKRLGIPMTNYGVTISYLHGVLDRAIRPFREEVKVLEHHHHHH | soluble |
| VSAEEQDTRSGGIQVIARAAELLRVLQAHPGGLSQAEIGERVGMARSTVSRILNALEDEGLVASRGARGPYRLGPEITRMATTVRLGVVTEMHPFLTELSRELDETVDLSILDGDRADVVDQVVPPQRLRAVSAVGESFPLYCCANGKALLAALPPERQARALPSRLAPLTANTITDRAALRDELNRIRVDGVAYDREEQTEGICAVGAVLRGVSVELVAVSVPVPAQRFYGREAELAGALLAWVSKVDAWFNGTEDRK | not soluble |
| MRAAFRTLGCKVNQVETEALLGFLKALEPEVVPLEAGGADLVVINSCAVTTTAEADTRKEVRRARRYNPHAFIVVTGCYAELAPEVLKELGADAVVPNARKAELPRVILERFGLPSDPITTPPNEFWGAGERGLLNSRVRAFLKVQDGCQAGCAYCIIPRLRGKERHRDHREALAEAEALLRMGIKEIVLTGVRLGSYKGHPRGLAGLVEDLYHLGAKVRLSSIEPEDTGEDLLKVIGRYAPEVRPHLHLSLQTGSDRLLKLMGRRYDKAYYRELVQRAYDLIPGFALTTDVIAGLPTETEEEHRETLAFLEELRPTRVHAFTYTPRPKTRAASMPQVPPEVRKRRTKELIALAQRLAEERIRPRLGERVEVLVERVQGGEALGHTPDYYEARLEGEARPGETVWARVHGVEGYVLLGRVEGVKEGARGPLELPVR | soluble |
| MPRRIDKVSSMTKGHITMSMNKLNLFNIYRKDPLQYFGKTLYQQKWAAKTETRNYHGQQIKEKRFKNVLFDSNLKTYSQLDASLKGHDVAPTPITLQTYGTLEKRLEIALFRSMFASSVRQARQFILGGYVKVNGVVIKHPSFPLQSGDVFSVDPEKVLFALGKTKPSLEKALSVDKKQIKKWNNYVFEAKKNPEKIWDLKQNKPDSLDTLKQVEDFEKQKKSVQNAQKLMKIQQNQVTRQSILQEIIQLGNAASEPASLETFNKYGDVARTKCLQIYQTLTNKNHPITKDPSTKNIEGFLAKDENKSPEEKHEVRLINSTLRELQSSEWERIRIQFENFEEGTDTKFFQTSFAKALRGVPKLNKEEILEDESKAKVQLPWQKHLFGRKDPSRSYFTPWTPRPFLGAFAILPSHIEISFDTCHAIYLRDPVARPGHSEVISPFPDHVHERAYMYYVRKGKS | not soluble |
| MSAEKPEVIITYCIQCQWLLRAAWLAQELLSTFSDDLGKVSLQPGTGGAFRITCDGVQLWERKADGGFPEAKVLKQRLRDQIDPARDLGHNDRQTPSNPQ | soluble |
| MERIERISEEIKREISDIIQNELKDPRLSKLISITEVNVTKDLRYAKVYVSVMGSEEEKANSLEGLKSAAGFIRREIGRRVQLRYTPEIHFELDNSIERGAYITKLINETSAQNKGSKDPEDT | soluble |
| MGSDKIHHHHHHMDPRRRLVPDIITLQAFECAARHGNFTRAAEELNLTQSAVSRQIGELEAQTGMQLFERIRRRVVLSEAGRKFLPDVRRLLQQSEQLMVRAVSAGTSHASLSVATLPTFGSRWLMPRLSRFIDANPDMTITIGSRSHPFDFDEEGFDLAIHYGQPIWAHGTCTFLCNEVIVPVASPALLRRAGVNRAQDLAGQPLLHVTTRPKLWTEWLEMNGVTADNAYQGSRFDQFSMIIEAAASGIGFALLPRYLIEAELASSRLEIVFDIPLQTDKSYYVALPEGRQDNVLARAFQAWLLDQVGKPV | not soluble |
| MNQKDVKLTVFSSDEKSFMVTATLVEKAGHAFLINSKFTQSDSKEIVEYLKKNNLSLDKIFIIHGDPDYYFGLESIKAVYPEAIAYATESTVEHIVHSVLGKLKVWKDALGENAPSNVVLPQVFKEKAIDFQGLTFELVGLEHYRTSLFNKELKVLIGGIDVFNEIHVFLADTSSKAAMEAWIENLKVLQALHADIIVPSHGSIEKSLNNQALTATMDYLRTAVQASEESGTSKDFVAKLEAAYPDYANKGVLELSAKVVTKELEHHHHHH | not soluble |
| MGSDKIHHHHHHAQNQDCAFFFPNQEGEQITRNCYTADGKLTNILVYRVDQAYEYPSGMEVVANYTFADAAGKTLNSGQMVARCSDGNFSMSMGDVATFPTALNMMNADVYMMGDLMNYPDAFSNPMNPGDDDEFDDGTLRLYQKGNKNNRAEISVFDREFVTTETVNTPAGAFYCTKVKYEMNIWTPKETIKGYGYEWYAPNIGIVRSEQYNNKKELQSYSVLERIKK | not soluble |
| MGREMMELNENRALAGGRTGSLRNIKRPLAITEAERQAVRDINLAHLDITSIDFDLFYLRENMELPLDAAAAVAYRLIVGTGLPQKLRCRDDTLLNFILQCRKKYRNVPYHNFYHVVDVCQTIYTFLYKGAVCEKLTELDCFVLLVTALVHDLDHMGLNNSFYLKTDSPLGILSSASGNASVLEVHHCNLAVEILSDPDSDVFEGLDAADRTLAYRSMIDCVLATDMAKHNELLNLFLAAMEKPYQIGDVASRQMMMDVIVKAGDVSNVTKPFDISRLWAMAVTEEFYRQGDMEKEKGVEVLPMFDRSKNTELAKGQIGFIDFVAGPFFKKIVSASLTGMQWTVERVESNRLEWQRTLDVKAAGDGNK | soluble |
